The target in the assay is rat brain farnesyl:protein transferase (rat) (UniProt Q04631). In words: cell-based or functional assay.

Where only a bound is given, the exact number is not on record here.

Regarding “CVIM with glutamic acid at the A2 position (peptide)”, the fold decline in affinity for the enzyme is above 50 fold.

Substance “CVIM with glutamic acid at the X position (peptide)” displayed a concentration required for inhibition above 40 µM. As to “CVIM with glycine at the A2 position (peptide)”, the concentration giving 50% inhibition is 8 µM. “CVIM with glycine at the X position (peptide)” registered a concentration required for inhibition above 40 µM. In the case of “CVIM with lysine at the A2 position (peptide)”, the fold decline in affinity for the enzyme is above 50 fold and the fold decrease in affinity for the enzyme against CVIM, as estimated by the concentration required for 50% inhibition was above 30 fold. As to “CVIM with lysine at the X position (peptide)”, the concentration required for inhibition was above 40 µM and the fold decrease in affinity for the enzyme against CVIM, as estimated by the concentration required for 50% inhibition was above 30 fold.
